According to US20030171273, “Novel transcription factor, BP1” (published 2003):

Biological target: beta-galactosidase (UniProt P00722 P00722:2-1024)
Test: EMSA; data not shown; negative control protein
Conditions: tags: pure protein, chain copies: 4, label: 32P
Procedure: 11:1475-1489). Protein extracts from lysogens were prepared as described (see, for example, Cowell, I. G. and H. C. Hurst. 199. Cloning transcription factors from a cDNA expression library, p.120-122. In D. S. Latchman (ed.), Transcription factors: a practical approach. IRL Press, New York). Competitors were pre-incubated with nuclear extract for 20 minutes prior to addition of the probe. Oligonucleotides sequences of probes and competitors for EMSA analyses are shown below.
To verify that the cDNA encoded a protein with the expected binding specificities of BP1, namely, the ability to bind to Silencers I and II upstream of the β-globin gene and to a sequence −530 bp upstream of the δ-globin gene (see, for example, Berg, P. E., S. Abhyankar, and M. Chase. 1994. The high mobility group protein HMG-I(Y) binds to a silencer DNA sequence upstream of the human β-globin gene. Blood 84 Suppl 1:262a), an EMSA competition assay was performed. The putative BP1 protein, fused to β-galactosidase, was expressed from a λ lysogen, as described above. This fusion protein was partially purified and incubated with the Silencer II probe used for screening the library, resulting in a single shifted band, indicated by the arrow (FIG. 2, lane 1). The band at the top marks the position of the wells, and the band at the bottom contains the unshifted probe. […]

Chain of beta-galactosidase (P00722 2-1024, one chain of several): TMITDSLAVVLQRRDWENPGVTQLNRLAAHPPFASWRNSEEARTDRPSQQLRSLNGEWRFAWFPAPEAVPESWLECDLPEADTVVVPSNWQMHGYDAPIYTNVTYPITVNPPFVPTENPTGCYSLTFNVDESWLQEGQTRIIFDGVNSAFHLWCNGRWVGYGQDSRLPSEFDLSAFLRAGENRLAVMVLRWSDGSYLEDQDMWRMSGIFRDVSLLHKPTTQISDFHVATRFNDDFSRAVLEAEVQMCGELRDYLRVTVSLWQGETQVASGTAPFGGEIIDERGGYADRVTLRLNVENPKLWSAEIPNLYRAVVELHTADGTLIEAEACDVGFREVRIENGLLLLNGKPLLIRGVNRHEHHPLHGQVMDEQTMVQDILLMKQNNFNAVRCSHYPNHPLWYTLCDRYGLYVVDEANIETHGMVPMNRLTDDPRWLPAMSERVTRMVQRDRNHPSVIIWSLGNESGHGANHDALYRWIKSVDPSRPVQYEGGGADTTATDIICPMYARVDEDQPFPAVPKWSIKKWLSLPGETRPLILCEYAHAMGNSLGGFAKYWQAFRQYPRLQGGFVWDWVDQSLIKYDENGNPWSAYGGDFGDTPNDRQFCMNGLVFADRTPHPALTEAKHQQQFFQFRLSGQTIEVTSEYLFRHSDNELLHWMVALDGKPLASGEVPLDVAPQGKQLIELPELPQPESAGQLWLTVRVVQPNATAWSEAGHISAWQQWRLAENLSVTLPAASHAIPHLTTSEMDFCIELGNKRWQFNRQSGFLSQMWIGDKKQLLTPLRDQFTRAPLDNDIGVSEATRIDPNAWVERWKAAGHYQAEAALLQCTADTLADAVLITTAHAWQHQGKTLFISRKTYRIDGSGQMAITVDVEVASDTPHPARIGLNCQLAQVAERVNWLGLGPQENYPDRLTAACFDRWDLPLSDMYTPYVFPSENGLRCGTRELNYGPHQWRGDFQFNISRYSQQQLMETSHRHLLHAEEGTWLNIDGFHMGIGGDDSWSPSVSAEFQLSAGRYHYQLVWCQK

B1: -300 beta (Silencer II) (dsDNA)
DNA 1: TTCTTATTTGTGTAATAAGAAAATTGGGAAAACGATCTTCAATATGCTTACCAAGCTG
DNA 2: CAGCTTGGTAAGCATATTGAAGATCGTTTTCCCAATTTTCTTATTACACAAATAAGAA
- binding result: no binding
